Measured values reported in publication PMC11836926.

Assays:
Assay in all cases: potentiometry
Asp127 = details: 298 K; 0.1 M NaClO4; none (HClO4-acidified solution titrated with 0.1 M carbonate-free NaOH under argon); free (apo) peptide
His323 = details: 298 K, 0.1 M NaClO4, none (HClO4-acidified solution titrated with 0.1 M carbonate-free NaOH under argon)
Cys143 = details: 298 K, 0.1 M NaClO4, none (HClO4-acidified solution titrated with 0.1 M carbonate-free NaOH under argon)
Lys70 = details: 298 K, 0.1 M NaClO4, none (HClO4-acidified solution titrated with 0.1 M carbonate-free NaOH under argon)
[1] = Cu(II)-bound, mononuclear 1:1 complex

B1: CopM MHxxH metal-binding domain peptide (CopM 113-127) (Synechocystis sp. (PCC 6803 per reference titles)) (peptide)
chain: GMMGMHQGHGMMAMD
pKa (Asp127): 3.80

B2: OprC CxxxM-HxM metal-binding site model peptide (OprC 141-149 + 6Ala linker + OprC 321-326) (Pseudomonas aeruginosa) (peptide)
chain: GACPNRMDAAAAAAAADHIMD
pKa (His323; [1]): 5.05
pKa (His323; free (apo) peptide): 6.92
pKa (Cys143; [1]): 7.49
pKa (Cys143; free (apo) peptide): 9.56

B3: CopM MxxHH metal-binding domain peptide (CopM 51-75) (Synechocystis sp. (PCC 6803 per reference titles)) (peptide)
chain: EMMTPHHQDAIDMAEMALQKAEHPE
pKa (Lys70; [1]): 9.56
pKa (Lys70; free (apo) peptide): 9.94
